Experimental data: the supplement of paper PMC10065799, “High-throughput profiling of sequence recognition by tyrosine kinases and SH2 domains using bacterial peptide display” (eLife, 2023)

Key:
EPHB2 = EPHB2 (UniProt P29323); test: phosphorylation enrichment, bacterial display (enrichment ratio); higher = better substrate or ligand; peptides without Tyr show the background
Hck = Hck (UniProt P08631); test: as above
c-Abl (mouse) = test: as above
Fyn = Fyn (UniProt P06241); test: as above
Fer (mouse) = test: as above
EPHB1 = EPHB1 (UniProt P54762); test: as above
Sequence of EPHB1 (P54762 whole entry, looked up): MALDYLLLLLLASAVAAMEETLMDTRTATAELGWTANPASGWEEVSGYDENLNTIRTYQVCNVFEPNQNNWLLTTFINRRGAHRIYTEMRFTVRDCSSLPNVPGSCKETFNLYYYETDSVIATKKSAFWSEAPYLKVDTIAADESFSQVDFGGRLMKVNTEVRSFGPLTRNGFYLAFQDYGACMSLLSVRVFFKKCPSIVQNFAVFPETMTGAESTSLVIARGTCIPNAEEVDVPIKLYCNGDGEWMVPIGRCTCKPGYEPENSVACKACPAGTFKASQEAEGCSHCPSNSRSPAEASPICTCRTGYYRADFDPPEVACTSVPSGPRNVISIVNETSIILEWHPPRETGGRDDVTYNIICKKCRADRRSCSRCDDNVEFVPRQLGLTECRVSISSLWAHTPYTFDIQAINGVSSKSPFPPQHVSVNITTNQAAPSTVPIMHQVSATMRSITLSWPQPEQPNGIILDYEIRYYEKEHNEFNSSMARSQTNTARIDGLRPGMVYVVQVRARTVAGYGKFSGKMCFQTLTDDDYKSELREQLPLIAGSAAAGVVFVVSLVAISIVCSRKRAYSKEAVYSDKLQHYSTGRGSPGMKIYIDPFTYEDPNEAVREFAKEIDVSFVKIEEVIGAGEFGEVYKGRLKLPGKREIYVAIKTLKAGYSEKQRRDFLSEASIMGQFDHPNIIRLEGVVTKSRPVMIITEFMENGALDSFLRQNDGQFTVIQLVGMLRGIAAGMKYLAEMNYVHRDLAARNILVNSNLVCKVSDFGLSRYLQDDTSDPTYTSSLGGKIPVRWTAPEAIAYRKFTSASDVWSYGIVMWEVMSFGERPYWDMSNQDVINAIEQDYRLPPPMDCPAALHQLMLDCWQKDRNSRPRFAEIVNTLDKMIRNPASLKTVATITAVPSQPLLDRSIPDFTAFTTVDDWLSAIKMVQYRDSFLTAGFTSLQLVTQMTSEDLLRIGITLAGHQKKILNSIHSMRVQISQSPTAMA

c-Src = test: as above
FGFR1 = FGFR1 (UniProt P11362); test: as above
Sequence of FGFR1 (P11362 whole entry, looked up): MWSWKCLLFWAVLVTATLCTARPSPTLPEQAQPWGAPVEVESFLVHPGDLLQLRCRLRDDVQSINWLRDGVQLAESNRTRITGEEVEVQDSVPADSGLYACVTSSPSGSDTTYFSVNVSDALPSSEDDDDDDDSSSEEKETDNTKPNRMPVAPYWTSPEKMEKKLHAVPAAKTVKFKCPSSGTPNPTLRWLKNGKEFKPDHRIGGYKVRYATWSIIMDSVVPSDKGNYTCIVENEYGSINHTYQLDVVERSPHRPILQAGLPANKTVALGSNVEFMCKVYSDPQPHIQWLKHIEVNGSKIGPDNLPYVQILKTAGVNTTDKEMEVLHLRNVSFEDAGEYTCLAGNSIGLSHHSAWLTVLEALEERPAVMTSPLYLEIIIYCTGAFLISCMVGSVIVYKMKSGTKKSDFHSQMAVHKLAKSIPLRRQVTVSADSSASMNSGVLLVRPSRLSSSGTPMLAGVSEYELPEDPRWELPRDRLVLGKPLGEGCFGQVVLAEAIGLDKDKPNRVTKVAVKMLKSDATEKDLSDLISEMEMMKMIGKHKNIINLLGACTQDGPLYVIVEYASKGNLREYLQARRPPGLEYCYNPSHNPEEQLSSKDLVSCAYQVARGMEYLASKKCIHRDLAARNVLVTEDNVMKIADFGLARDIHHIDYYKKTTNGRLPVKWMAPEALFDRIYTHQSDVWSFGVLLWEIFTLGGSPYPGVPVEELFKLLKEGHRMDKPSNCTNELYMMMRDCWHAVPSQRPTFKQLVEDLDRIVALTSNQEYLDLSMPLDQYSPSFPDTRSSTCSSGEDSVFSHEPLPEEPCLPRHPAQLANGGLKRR

Fes = Fes (UniProt P07332); test: as above
FGFR3 = FGFR3 (UniProt P22607); test: as above
AncSZ = test: as above
MERTK = MERTK (UniProt Q12866); test: as above
Sequence of MERTK (Q12866 whole entry, looked up): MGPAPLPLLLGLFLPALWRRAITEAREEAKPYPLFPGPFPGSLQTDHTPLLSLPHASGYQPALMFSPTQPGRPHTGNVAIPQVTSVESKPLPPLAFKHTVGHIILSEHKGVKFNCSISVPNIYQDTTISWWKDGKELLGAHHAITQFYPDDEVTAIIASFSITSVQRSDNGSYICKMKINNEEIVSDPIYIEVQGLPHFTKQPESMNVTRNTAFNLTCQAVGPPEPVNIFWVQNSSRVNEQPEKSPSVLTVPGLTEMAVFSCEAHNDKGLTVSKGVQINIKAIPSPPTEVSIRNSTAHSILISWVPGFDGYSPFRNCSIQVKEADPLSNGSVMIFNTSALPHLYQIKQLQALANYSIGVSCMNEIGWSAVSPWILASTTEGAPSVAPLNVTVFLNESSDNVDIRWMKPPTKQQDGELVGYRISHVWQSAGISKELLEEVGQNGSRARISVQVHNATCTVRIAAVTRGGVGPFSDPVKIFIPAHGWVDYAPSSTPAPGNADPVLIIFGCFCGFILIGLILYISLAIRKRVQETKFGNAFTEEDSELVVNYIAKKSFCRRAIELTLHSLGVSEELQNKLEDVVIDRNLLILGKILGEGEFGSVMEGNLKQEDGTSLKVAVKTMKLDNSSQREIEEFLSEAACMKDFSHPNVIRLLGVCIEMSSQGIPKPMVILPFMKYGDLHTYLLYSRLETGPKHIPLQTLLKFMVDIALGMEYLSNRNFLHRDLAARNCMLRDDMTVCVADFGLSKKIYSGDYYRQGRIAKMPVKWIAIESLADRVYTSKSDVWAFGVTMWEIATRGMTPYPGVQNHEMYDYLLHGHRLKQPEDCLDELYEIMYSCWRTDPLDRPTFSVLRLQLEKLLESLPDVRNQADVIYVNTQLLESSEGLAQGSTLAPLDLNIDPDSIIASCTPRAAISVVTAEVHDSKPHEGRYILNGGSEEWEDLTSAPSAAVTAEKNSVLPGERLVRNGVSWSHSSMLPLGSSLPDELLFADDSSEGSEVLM

Jak2 = Jak2 (UniProt O60674); test: as above
c-Src SH2 = test: SH2 binding enrichment of the phosphorylated peptide, bacterial display (enrichment ratio); higher = better substrate or ligand; peptides without Tyr show the background
Grb2 SH2 = Grb2 SH2 (UniProt P62993); test: as above
Sequence of Grb2 SH2 (P62993 whole entry, looked up): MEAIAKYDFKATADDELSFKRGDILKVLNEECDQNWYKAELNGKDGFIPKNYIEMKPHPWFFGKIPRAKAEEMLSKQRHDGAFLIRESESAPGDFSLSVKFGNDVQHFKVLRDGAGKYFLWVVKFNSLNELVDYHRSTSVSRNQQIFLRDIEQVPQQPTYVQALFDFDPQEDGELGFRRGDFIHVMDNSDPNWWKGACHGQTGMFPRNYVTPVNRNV

SHP2-C SH2 = test: as above
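Throughout, for SH2 binding enrichment of the phosphorylated peptide, bacterial display: peptide library displayed on the E. coli surface as eCPX fusions, selected cells deep-sequenced, score is each peptide's frequency after selection divided by its frequency in the input.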
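Throughout, for phosphorylation enrichment, bacterial display: 11-residue human phosphosite peptides and single-mutation variants displayed on the E. coli surface, counted by deep sequencing, each peptide's frequency after selection divided by its frequency in the unselected input library; frequency after pTyr selection over input frequency; kinase dosed for 20-30% of maximal phosphorylation in three min.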

Sequence of EPHB2 (P29323 whole entry, looked up): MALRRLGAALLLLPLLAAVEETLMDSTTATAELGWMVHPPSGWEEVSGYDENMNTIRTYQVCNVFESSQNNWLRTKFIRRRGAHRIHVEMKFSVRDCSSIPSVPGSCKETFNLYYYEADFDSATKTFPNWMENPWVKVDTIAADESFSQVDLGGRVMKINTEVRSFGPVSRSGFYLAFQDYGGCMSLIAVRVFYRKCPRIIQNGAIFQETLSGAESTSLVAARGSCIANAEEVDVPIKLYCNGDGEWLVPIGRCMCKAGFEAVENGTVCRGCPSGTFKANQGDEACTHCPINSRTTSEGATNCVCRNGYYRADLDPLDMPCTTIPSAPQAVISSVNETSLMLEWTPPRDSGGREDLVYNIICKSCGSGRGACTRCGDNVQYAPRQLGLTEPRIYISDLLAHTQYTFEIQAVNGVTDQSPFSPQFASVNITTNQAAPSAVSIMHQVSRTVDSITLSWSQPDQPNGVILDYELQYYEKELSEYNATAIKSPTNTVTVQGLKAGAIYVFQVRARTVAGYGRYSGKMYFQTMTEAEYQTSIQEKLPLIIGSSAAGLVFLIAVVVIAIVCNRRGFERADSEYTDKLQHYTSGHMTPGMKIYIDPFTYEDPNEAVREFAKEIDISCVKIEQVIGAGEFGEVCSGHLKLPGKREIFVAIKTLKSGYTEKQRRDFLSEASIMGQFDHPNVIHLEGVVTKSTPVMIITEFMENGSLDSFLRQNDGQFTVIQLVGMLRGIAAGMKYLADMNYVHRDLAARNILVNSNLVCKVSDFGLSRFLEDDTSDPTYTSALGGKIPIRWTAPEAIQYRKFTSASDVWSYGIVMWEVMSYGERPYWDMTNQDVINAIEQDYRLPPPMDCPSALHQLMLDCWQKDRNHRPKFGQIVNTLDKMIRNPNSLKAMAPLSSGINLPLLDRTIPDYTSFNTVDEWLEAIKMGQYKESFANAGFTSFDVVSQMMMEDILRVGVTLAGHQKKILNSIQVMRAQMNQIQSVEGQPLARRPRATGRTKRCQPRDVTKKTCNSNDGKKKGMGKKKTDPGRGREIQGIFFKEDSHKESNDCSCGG
Sequence of Hck (P08631 whole entry, looked up): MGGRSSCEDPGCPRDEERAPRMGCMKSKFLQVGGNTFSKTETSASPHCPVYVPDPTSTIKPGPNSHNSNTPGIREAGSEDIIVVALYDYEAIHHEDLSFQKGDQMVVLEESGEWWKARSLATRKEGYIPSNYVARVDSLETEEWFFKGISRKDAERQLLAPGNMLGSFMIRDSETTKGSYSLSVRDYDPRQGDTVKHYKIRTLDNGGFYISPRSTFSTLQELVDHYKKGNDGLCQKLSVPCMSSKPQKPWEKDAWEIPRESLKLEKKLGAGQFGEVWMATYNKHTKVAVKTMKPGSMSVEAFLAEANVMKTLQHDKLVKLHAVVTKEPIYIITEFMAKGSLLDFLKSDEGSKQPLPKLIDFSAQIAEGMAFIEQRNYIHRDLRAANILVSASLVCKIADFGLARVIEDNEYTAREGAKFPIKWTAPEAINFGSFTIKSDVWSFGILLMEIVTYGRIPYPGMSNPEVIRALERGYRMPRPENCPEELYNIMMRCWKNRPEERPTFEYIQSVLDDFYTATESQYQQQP

With LIFVSYDDWDF [GRIN2A_Y281_S278F_YF] the phosphorylation enrichment (EPHB2) was 2.89, the phosphorylation enrichment (Hck) was 1.1 and the phosphorylation enrichment (c-Abl (mouse)) was 2.77. For the same sequence, the phosphorylation enrichment (Fyn) was 1.02, the phosphorylation enrichment (Fer (mouse)) was 17.4 and the phosphorylation enrichment (EPHB1) was 2.23. For the same sequence, the phosphorylation enrichment (c-Src) was 1.79, the phosphorylation enrichment (FGFR1) was 1.38 and the phosphorylation enrichment (Fes) was 4.34. It also gave a phosphorylation enrichment (FGFR3) of 2.55, a phosphorylation enrichment (AncSZ) of 4.68 and a phosphorylation enrichment (MERTK) of 2.03. The phosphorylation enrichment (Jak2) was 4.29, the SH2 binding enrichment (c-Src SH2) was 1.01 and the SH2 binding enrichment (Grb2 SH2) was 1.68. It also gave an SH2 binding enrichment (SHP2-C SH2) of 1.53.

Work on YLEEEYVKAVG [TF_Y674_G671E] yielded a phosphorylation enrichment (EPHB2) of 0.63, a phosphorylation enrichment (Hck) of 0.575 and a phosphorylation enrichment (c-Abl (mouse)) of 1.01. For the same sequence, the phosphorylation enrichment (Fyn) was 0.491, the phosphorylation enrichment (Fer (mouse)) was 0.615 and the phosphorylation enrichment (EPHB1) was 0.629. The phosphorylation enrichment (c-Src) was 0.505, the phosphorylation enrichment (FGFR1) was 0.606 and the phosphorylation enrichment (Fes) was 1.32. The phosphorylation enrichment (FGFR3) was 0.893, the phosphorylation enrichment (AncSZ) was 1.36 and the phosphorylation enrichment (MERTK) was 0.454. For the same sequence, the phosphorylation enrichment (Jak2) was 1.18, the SH2 binding enrichment (c-Src SH2) was 0.323 and the SH2 binding enrichment (Grb2 SH2) was 0.75. The SH2 binding enrichment (SHP2-C SH2) was 0.685.

In the case of HEKFLYFLPAS [DYNC2H1_Y346], the phosphorylation enrichment (EPHB2) is reported as 1.3, the phosphorylation enrichment (Hck) is reported as 2.12 and the phosphorylation enrichment (c-Abl (mouse)) is reported as 1.4. The phosphorylation enrichment (Fyn) was 1.87, the phosphorylation enrichment (Fer (mouse)) was 0.931 and the phosphorylation enrichment (EPHB1) was 1.72. It also gave a phosphorylation enrichment (c-Src) of 1.08, a phosphorylation enrichment (FGFR1) of 1.08 and a phosphorylation enrichment (Fes) of 1.8. It also gave a phosphorylation enrichment (FGFR3) of 1.82, a phosphorylation enrichment (AncSZ) of 2.17 and a phosphorylation enrichment (MERTK) of 3.9. The phosphorylation enrichment (Jak2) was 2.82, the SH2 binding enrichment (c-Src SH2) was 0.676 and the SH2 binding enrichment (Grb2 SH2) was 0.925. For the same sequence, the SH2 binding enrichment (SHP2-C SH2) was 0.868.

With DAVCYYRMENA [NPHS2_Y195_I192V] the phosphorylation enrichment (EPHB2) was 0.588, the phosphorylation enrichment (Hck) was 1.37 and the phosphorylation enrichment (c-Abl (mouse)) was 0.956. For the same sequence, the phosphorylation enrichment (Fyn) was 1.34, the phosphorylation enrichment (Fer (mouse)) was 0.704 and the phosphorylation enrichment (EPHB1) was 0.622. It also gave a phosphorylation enrichment (c-Src) of 3.44, a phosphorylation enrichment (FGFR1) of 7.53 and a phosphorylation enrichment (Fes) of 1.1. The phosphorylation enrichment (FGFR3) was 6.2, the phosphorylation enrichment (AncSZ) was 1.9 and the phosphorylation enrichment (MERTK) was 1.82. The phosphorylation enrichment (Jak2) was 6.76, the SH2 binding enrichment (c-Src SH2) was 0.548 and the SH2 binding enrichment (Grb2 SH2) was 0.676. The SH2 binding enrichment (SHP2-C SH2) was 0.648.

In the case of RQSTLYSFFPT [MSH6_Y8_K13T], the phosphorylation enrichment (EPHB2) is reported as 21.2, the phosphorylation enrichment (Hck) is reported as 9.63 and the phosphorylation enrichment (c-Abl (mouse)) is reported as 3.62. The phosphorylation enrichment (Fyn) was 7.89, the phosphorylation enrichment (Fer (mouse)) was 14.2 and the phosphorylation enrichment (EPHB1) was 16.1. The phosphorylation enrichment (c-Src) was 7.3, the phosphorylation enrichment (FGFR1) was 9.72 and the phosphorylation enrichment (Fes) was 1.26. The phosphorylation enrichment (FGFR3) was 7.04, the phosphorylation enrichment (AncSZ) was 1.35 and the phosphorylation enrichment (MERTK) was 16.8. The phosphorylation enrichment (Jak2) was 0.824, the SH2 binding enrichment (c-Src SH2) was 0.752 and the SH2 binding enrichment (Grb2 SH2) was 1. The SH2 binding enrichment (SHP2-C SH2) was 1.4.
